The record followed here is patent US20250019457A1 (IBIO, published 2025).

Where a chain is given by its changes, count along the chain named. Like-named read-outs stand apart in the source and are kept apart here.

Assay [1] addresses T1, mouse TROP2 (purified recombinant antigen, Acro Biosystems Cat #TR2-M52H6) (mouse, UniProt Q8BGV3 25-270).
T1 construct: Bought recombinant protein; also called msTROP2
T1 sequence: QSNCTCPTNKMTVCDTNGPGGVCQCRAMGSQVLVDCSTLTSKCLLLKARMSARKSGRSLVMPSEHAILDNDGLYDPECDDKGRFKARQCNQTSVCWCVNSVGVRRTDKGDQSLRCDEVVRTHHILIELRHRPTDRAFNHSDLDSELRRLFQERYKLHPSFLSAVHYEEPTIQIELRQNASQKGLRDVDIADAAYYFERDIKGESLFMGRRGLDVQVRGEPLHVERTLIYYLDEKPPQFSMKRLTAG
As to the kind of experiment: SPR, Carterra LSA; antibody captured on anti-human IgG, antigen injected.

Assay [2] deals with T2, human EpCAM (purified recombinant antigen, Acro Biosystems Cat #EPM-H5223) (human, UniProt P16422 24-265).
T2 construct: Bought recombinant protein
T2 sequence: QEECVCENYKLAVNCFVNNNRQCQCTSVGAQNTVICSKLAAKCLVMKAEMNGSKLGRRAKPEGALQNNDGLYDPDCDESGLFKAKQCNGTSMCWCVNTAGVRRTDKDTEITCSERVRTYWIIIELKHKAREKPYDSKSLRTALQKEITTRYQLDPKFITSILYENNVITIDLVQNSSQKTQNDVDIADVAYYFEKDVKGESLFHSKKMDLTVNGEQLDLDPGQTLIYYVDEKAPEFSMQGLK
The assay is described as above.

The target in assay [3] is T3, human TROP2 (purified recombinant antigen, Acro Biosystems Cat #TR2-H5223) (human, UniProt P09758 27-274).
T3 construct: Bought recombinant protein; also called huTROP2
T3 sequence: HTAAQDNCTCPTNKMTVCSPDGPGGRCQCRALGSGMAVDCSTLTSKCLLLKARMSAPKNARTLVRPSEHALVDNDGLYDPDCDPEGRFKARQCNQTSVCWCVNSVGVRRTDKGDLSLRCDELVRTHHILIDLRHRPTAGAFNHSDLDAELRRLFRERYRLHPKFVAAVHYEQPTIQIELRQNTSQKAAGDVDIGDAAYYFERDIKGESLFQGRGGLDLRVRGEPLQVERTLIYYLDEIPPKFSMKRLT
As to the kind of experiment: SPR, Carterra LSA; antibody captured on anti-human IgG, antigen injected; 1:1 fit.

In assay [4] the target is T3, human TROP2 (purified recombinant …). Described as above. This is another data set of the same source.
In assay [5] the target is T4, cynomolgus/rhesus TROP2 (purified recombinant antigen, Acro Biosystems Cat #TR2-R52H3) (cynomolgus/rhesus, UniProt P09758 27-274 (human entry)).
T4 construct: Bought recombinant protein; also called cyTROP2; cyno/rhesus TROP2
T4 chain: T3 sequence with M36V, S67N, I204V
Described as above.

Assay [6] deals with T5, human Trop2 on cells (FaDu cells, endogenous; ExpiCHO cells overexpressing human Trop2) (human, UniProt P09758 27-323).
T5 construct: Cell-surface form
T5 sequence: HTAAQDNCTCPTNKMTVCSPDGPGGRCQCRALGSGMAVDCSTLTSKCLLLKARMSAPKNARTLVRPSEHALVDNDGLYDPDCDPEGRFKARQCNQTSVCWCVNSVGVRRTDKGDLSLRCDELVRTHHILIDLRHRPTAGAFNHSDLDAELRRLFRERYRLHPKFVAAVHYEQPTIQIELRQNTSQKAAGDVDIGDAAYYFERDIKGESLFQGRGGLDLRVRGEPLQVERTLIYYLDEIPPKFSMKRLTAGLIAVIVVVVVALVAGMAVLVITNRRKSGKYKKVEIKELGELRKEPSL
As to the kind of experiment: flow cytometry on FaDu cells (endogenous human Trop2); average of n=1-3 experiments.

Assay [7] concerns the target T3, human TROP2 (purified recombinant …). As to the kind of experiment: MSD assay: biotinylated TROP2 on streptavidin plate, antibody titrated, anti-human SULFO-TAG detection.
The target in assay [8] is T6, mouse Trop2 on ExpiCHO cells overexpressing mouse Trop2 (mouse, UniProt Q8BGV3 25-317).
T6 construct: Cell-surface form
T6 sequence: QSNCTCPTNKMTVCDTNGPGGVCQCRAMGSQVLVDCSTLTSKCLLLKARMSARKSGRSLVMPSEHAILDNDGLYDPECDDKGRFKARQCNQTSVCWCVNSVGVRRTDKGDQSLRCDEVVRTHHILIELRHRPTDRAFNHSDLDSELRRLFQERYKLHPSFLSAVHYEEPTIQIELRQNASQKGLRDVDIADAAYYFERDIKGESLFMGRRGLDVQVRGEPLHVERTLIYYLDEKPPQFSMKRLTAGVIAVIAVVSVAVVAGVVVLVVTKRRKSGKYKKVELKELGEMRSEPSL
As to the kind of experiment: flow cytometry on ExpiCHO cells overexpressing mouse Trop2, percent of cells bound; histogram overlay at 66.67 nM.

The target of assay [9] is T7, recombinant CD3ϵδ-HRP heterodimer (Acro Biosystems CDD-HR2W3) (Homo sapiens (Human), UniProt P07766 23-126; P04234 22-105, Conjugated to horseradish peroxidase (HRP). The site and chemistry are not stated and the letters do not carry it.).
T7 construct: Bought HRP conjugate; also called CD3ϵδ heterodimer; not shown: The HRP conjugate and any vendor tags or fusion partners on the two chains (Acro Biosystems CDD-HR2W3); copies: 1 + 1
T7 sequence (P07766 23-126 limits assumed, stated change not applied, chain 1 of 2): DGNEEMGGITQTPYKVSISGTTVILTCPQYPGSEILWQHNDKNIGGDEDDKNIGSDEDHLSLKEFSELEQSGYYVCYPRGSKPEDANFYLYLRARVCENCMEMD
T7 sequence (P04234 22-105 limits assumed, stated change not applied, chain 2 of 2): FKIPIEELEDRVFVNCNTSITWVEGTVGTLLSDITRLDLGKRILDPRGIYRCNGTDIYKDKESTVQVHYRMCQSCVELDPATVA
As to the kind of experiment: direct ELISA: antibody coated at 5 ug/mL, CD3ϵδ-HRP titrated (the axis is the CD3ϵδ-HRP concentration), absorbance at 450 nm.

B1: SD-025096 (antibody, V domains shown)
VH: QVQLQQSGAELVRPGASVKLSCKASGYTFTSYWINWVKQRPGQGLEWIGNIFPSGSYTNYNQKFKDRATLTVDKSSSTAFMQLSSPTSEDSAIYFCTRGSGFDYWGQGTTLTVSS
VL: DIVLTQSPATLSVTPGDSVSLSCRASQSISNNLHWYQQKSHESPRLLIKYASQSISGIPSRFSGSGSGTDFTLSINSVETEDFGMYFCQQSNSWPFTFGSGTKLEIK
notes: Mouse/human chimera; also called Human IgG1 SD-025096
Take B1: the binding result in assay [1] and in assay [2] was “no binding (tested: 1 µM top concentration)” each time. The results for the Kd in [3], in assay [4] and in assay [5] were 5.47 nM, 5.47 nM and 6.55 nM, respectively. In addition, the koff in assay [3] was found to be 0.00165 s⁻¹. Moreover, the kon in assay [3] amounted to 301000 M⁻¹ s⁻¹. This molecule gave an EC50 in [6] of 1.99 nM. Further, in assay [7], the “EC50 (read off the curve)” value was roughly 0.2 nM.

B2: SD-071877 (antibody, V domains shown)
VH: AVTLDESGGGLQTPGGALSLVCKASGFDFSGYGMGWVRQAPGKGLEWVAGITNDGRYIGHGSAVKGRATISRDNGQSTVRLQLNNLRAEDTGTYFCTKCAYRSGCDYEAGSIDAWGHGTEVIVSS
VL: ALALTQPSSVSANLGGTVKITCSGDNNWYGWYQQKSPGSAPVTVIYYDDKRPSDIPSRFSGSRSGSTGTLTITGVQAEDEAVYFCGNRDSSAGYVGIFGAGTTLTVL
notes: Chicken/human chimera
As to B2, the binding result is given as “no binding (tested: 1 µM top concentration)” in assay [2] and “no binding (tested: 66.67 nM)” in [8]. Moreover, the Kd in [3] worked out at 0.31 nM; in assay [4] it was 0.31 nM; in [5], 4.96 nM. For the same molecule, the koff in assay [3] came to 0.000143 s⁻¹. Besides, the kon in assay [3] is 457000 M⁻¹ s⁻¹. In addition, the EC50 in assay [6] is 1.09 nM.

B3: SD-175533 (antibody, V domains shown)
VH: QIQLQESGPGLMKPSQSLSLTCTVTGYSITSDYAWNWIRQFPGNKLEWMGHITYSGSTSYNPSLKSRISISRDTSKNQFFLQLNSVTTGDTATYYCARGGSTLISGDFDYWGQGTTLTVSS
VL: DIVLTQSHKFMSTSVGDRVSITCKASQDVSTAVAWYQQKPGQSPKLLIYSASYRYTGVPDRFTGSGSGTDFTFTISSVQAEDLAVYYCQQHYSTPLTFGAGTKLELK
notes: Mouse/human chimera
Regarding B3, the binding result in [1] and in assay [2] was “no binding (tested: 1 µM top concentration)” throughout. Further, the Kd in assay [3] is 0.2 nM; in [4], 0.2 nM; in assay [5], 0.1 nM. Further, in assay [3], the koff came to 3.96e-05 s⁻¹. Besides, the kon in assay [3] is 197000 M⁻¹ s⁻¹. This molecule came in with an EC50 in [6] of 2.36 nM. In [7], the “EC50 (read off the curve)” value was roughly 0.3 nM.

B4: SD-661765 (antibody, V domains shown)
VH: QVQLVETGGDLVKPGGSLKLSCAASGFTFSTYGMSWVRQTPDKRLEWVATISSGGIYTYYSDSVKGRFTISRDNAKNTLYLQMSSLKSEDTAMYYCARDGNYLGFDFWGQGTTLTVSS
VL: DIVMTQSPASLAVSLGQRATISCRASESVESYGNSFMNWYQQKPGQPPKLLIYRASNLESGIPARFSGSGSRTDFTLTINPVEADDVATYYCQQSYEDPRTFGGGTKLEIK
notes: Mouse/human chimera
Consider B4, for which the binding result in assay [1] and in assay [2] was “no binding (tested: 1 µM top concentration)” throughout. For the same molecule, the Kd in assay [3] stood at 1.65 nM; in assay [4], 1.65 nM; in assay [5], 1.82 nM. For the same molecule, in assay [3], the koff is 0.000574 s⁻¹. The kon in [3] was 348000 M⁻¹ s⁻¹. The molecule further yielded an EC50 in assay [6] of 1.07 nM. Moreover, the “EC50 (read off the curve)” value in [7] was roughly 0.2 nM.

B5: SD-813149 (antibody, V domains shown)
VH: EVKLDESGGGLVKPGGSLKLSCAASGFTFSSYTMSWVRQTPEKRLEWVATINSDGIYTYYPDSVKGRFTISRDNAKNTLYLQMSSLKSEDTAMYYCTRVHYYGYDAMDYWGQGTSVTVSS
VL: EIQMTQSPASLSASVGETVTITCRASENIYSYLAWYQQKQGKSPQLLVYSAKTLAEGVPSRFSGSGSGTHFSLKINSLQPEDFGSYYCQHHYGIPLTFGAGTKLELK
notes: Mouse/human chimera
As for B5, the binding result in assay [1] and in assay [2] was “no binding (tested: 1 µM top concentration)” each time. For the same molecule, the dissociation constant Kd in assay [3] is 0.43 nM; in [4], 0.43 nM; in assay [5], 0.38 nM. Besides, in assay [3], the koff is 0.000163 s⁻¹. The kon in assay [3] was determined as 377000 M⁻¹ s⁻¹. In [6], this molecule gave a concentration giving a half-maximal response (EC50) of 2.19 nM. Moreover, the 50% effective concentration (EC50 (read off the curve)) in assay [7] is roughly 0.2 nM.

B6: Gen 1 (antibody, V domains shown)
VH: EVQLVESGGGLVQPGGSLRLSCAASGFTFNTYAMNWVRQAPGKGLEWVGRIRSKYNNYATYYADSVKGRFTISRDDSKNTLYLQMNSLRAEDTAVYYCVRHGNFGNSYVSWFAYWGQGTLVTVSS
VL: DIQMTQSPSSLSASVGDRVTITCRSSTGAVTTSNYANWVQQKPGKAPKGLIGGTNKRAPGVPARFSGSGSGTDFTLTISSLQPEDFATYYCALWYSNLWVFGQGTKVEIK
notes: also called CD3 Gen 1; Gen1 CD3
As for B6, the “EC50 (read off the curve)” value in [9] is roughly 0.04 µg/mL.
